This note sets out measurements from the supplement of paper PMC10567573.

First the molecules themselves.
B1: RAB22A (parent)
chain: FVEDSFDPNINPTIGASFMTKTVQ
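Further: lentivirally expressed fusions sorted by FACS into six bins by GFP to DsRed ratio, PSI derived from sequencing read proportions per bin multiplied by bin number.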

Variants of B1 are the subject of this data set. Kind of data set: protein stability index of a GFP-peptide fusion (GPS, HEK-293T) (PSI 1-6); higher = more stable. Particulars: c terminus: a fixed tail appended.
Turning to FVEDSFDPNINPTIGAQFMTKTVQ, the protein stability index worked out at 2.6. To FVEDSFDPNINPTIGADFMTKTVQ belongs 2.53; to FVEDSFDPNINPTIGAKFMTKTVQ, 2.29.

For FVEDSFDPNINPTIGAFFMTKTVQ, the protein stability index was determined as 2.14.

With FVEDSFDPNINPTIGAAFMTKTVQ, the protein stability index amounted to 2.18.

Take FVEDSFDPNINPTIGAWFMTKTVQ: the protein stability index worked out at 1.96. The same measure for FVEDSFDPNINPTIGACFMTKTVQ: 2.04; for FVEDSFDPNINPTIGATFMTKTVQ: 2.17. To FVEDSFDPNINPTIGAHFMTKTVQ belongs 2.35. On to FVEDSFDPNINPTIGAIFMTKTVQ, for which the protein stability index amounted to 2.25.

In the case of FVEDSFDPNINPTIGAPFMTKTVQ, the protein stability index worked out at 2.49. For FVEDSFDPNINPTIGAMFMTKTVQ, the protein stability index was determined as 1.74. As to FVEDSFDPNINPTIGARFMTKTVQ, the protein stability index was 2.51. To FVEDSFDPNINPTIGAGFMTKTVQ belongs 2.31; to FVEDSFDPNINPTIGALFMTKTVQ, 1.77. To FVEDSFDPNINPTIGAVFMTKTVQ belongs 1.74; to FVEDSFDPNINPTIGAEFMTKTVQ, 2.66; to FVEDSFDPNINPTIGAYFMTKTVQ, 1.82.

As for FVEDSFDPNINPTIGANFMTKTVQ, the protein stability index was 2.28. To FVEDSFDPNINPTIGASFMAKTVQ belongs 2.14; to FVEDSFDPNINPTIGASFMHKTVQ, 2.34. To FVEDSFDPNINPTIGASFMNKTVQ belongs 2.31; to FVEDSFDPNINPTIGASFMLKTVQ, 1.66; to FVEDSFDPNINPTIGASFMKKTVQ, 2.23. Turning to FVEDSFDPNINPTIGASFMIKTVQ, the protein stability index worked out at 1.87. To FVEDSFDPNINPTIGASFMGKTVQ belongs 2.58; to FVEDSFDPNINPTIGASFMVKTVQ, 2.23. As for FVEDSFDPNINPTIGASFMQKTVQ, the protein stability index was 2.24.

For FVEDSFDPNINPTIGASFMYKTVQ, the protein stability index worked out at 1.86. To FVEDSFDPNINPTIGASFMFKTVQ belongs 1.85; to FVEDSFDPNINPTIGASFMCKTVQ, 2.38; to FVEDSFDPNINPTIGASFMMKTVQ, 2.22. To FVEDSFDPNINPTIGASFMDKTVQ belongs 2.52; to FVEDSFDPNINPTIGASFMRKTVQ, 2.12; to FVEDSFDPNINPTIGASFMWKTVQ, 2.35. To FVEDSFDPNINPTIGASFMSKTVQ belongs 2.06; to FVEDSFDPNINPTIGASFMEKTVQ, 2.39; to FVEDSFDPNINPTIGASFMPKTVQ, 2.29. In the case of FVEDSFDPNINPTITASFMTKTVQ, the protein stability index came to 2.22. FVEDSFDPNINPTIRASFMTKTVQ: the protein stability index was 1.92.

FVEDSFDPNINPTILASFMTKTVQ: the protein stability index is 2.06. The same measure for FVEDSFDPNINPTICASFMTKTVQ: 2.03.

In the case of FVEDSFDPNINPTISASFMTKTVQ, the protein stability index came to 2.4. The same measure for FVEDSFDPNINPTINASFMTKTVQ: 2.41. The same measure for FVEDSFDPNINPTIYASFMTKTVQ: 1.9; for FVEDSFDPNINPTIHASFMTKTVQ: 2.08.

Take FVEDSFDPNINPTIIASFMTKTVQ: the protein stability index amounted to 1.66. The same measure for FVEDSFDPNINPTIDASFMTKTVQ: 2.86; for FVEDSFDPNINPTIVASFMTKTVQ: 1.87. To FVEDSFDPNINPTIEASFMTKTVQ belongs 2.86; to FVEDSFDPNINPTIWASFMTKTVQ, 1.85; to FVEDSFDPNINPTIFASFMTKTVQ, 2.33. The same measure for FVEDSFDPNINPTIPASFMTKTVQ: 2.42; for FVEDSFDPNINPTIAASFMTKTVQ: 2.46; for FVEDSFDPNINPTIMASFMTKTVQ: 2.06. As to FVEDSFDPNINPTIQASFMTKTVQ, the protein stability index turned out to be 2.38. To FVEDSFDPNINPTIKASFMTKTVQ belongs 2.1; to FVEDSFDPNINPTIGASFMTKTVG, 2.22; to FVEDSFDPNINPTIGASFMTKTVC, 1.89. For FVEDSFDPNINPTIGASFMTKTVH, the protein stability index amounted to 2.1. To FVEDSFDPNINPTIGASFMTKTVK belongs 2.15; to FVEDSFDPNINPTIGASFMTKTVE, 2.91.

For the variant FVEDSFDPNINPTIGASFMTKTVI, the protein stability index was 1.55.

As for FVEDSFDPNINPTIGASFMTKTVA, the protein stability index was found to be 2.11. To FVEDSFDPNINPTIGASFMTKTVF belongs 1.49. In the case of FVEDSFDPNINPTIGASFMTKTVD, the protein stability index came to 2.56. As for FVEDSFDPNINPTIGDSFMTKTVQ, the protein stability index worked out at 2.55. With FVEDSFDPNINPTIGQSFMTKTVQ, the protein stability index stood at 2.61. In the case of FVEDSFDPNINPTIGPSFMTKTVQ, the protein stability index amounted to 2.54. To FVEDSFDPNINPTIGVSFMTKTVQ belongs 1.81; to FVEDSFDPNINPTIGNSFMTKTVQ, 2.74; to FVEDSFDPNINPTIGRSFMTKTVQ, 2.26.

As for FVEDSFDPNINPTIGHSFMTKTVQ, the protein stability index stood at 2.11. Turning to FVEDSFDPNINPTIGCSFMTKTVQ, the protein stability index came to 1.8.

As for FVEDSFDPNINPTIGMSFMTKTVQ, the protein stability index is 1.75. Turning to FVEDSFDPNINPTIGTSFMTKTVQ, the protein stability index came out at 2.26.

Consider FVEDSFDPNINPTIGISFMTKTVQ, for which the protein stability index was 2.11. For FVEDSFDPNINPTIGSSFMTKTVQ, the protein stability index turned out to be 2.86.

Take FVEDSFDPNINPTIGGSFMTKTVQ: the protein stability index is 2.56. As to FVEDSFDPNINPTIGKSFMTKTVQ, the protein stability index was found to be 1.97.

As for FVEDSFDPNINPTIGWSFMTKTVQ, the protein stability index was determined as 2.15. Regarding FVEDSFDPNINPTIGFSFMTKTVQ, the protein stability index worked out at 2.07. Consider FVEDSFDPNINPTIGLSFMTKTVQ, for which the protein stability index came to 1.81. On to FVEDSFDPNINPTIGYSFMTKTVQ, for which the protein stability index amounted to 1.95. With FVEDSFDPNINPTIGESFMTKTVQ, the protein stability index is 3.38.

On to FVEDSFDPNINPTIGASFMTKCVQ, for which the protein stability index stood at 2.35. Take FVEDSFDPNINPTIGASFMTKLVQ: the protein stability index is 1.78. The same measure for FVEDSFDPNINPTIGASFMTKRVQ: 2.34. The same measure for FVEDSFDPNINPTIGASFMTKHVQ: 2.09; for FVEDSFDPNINPTIGASFMTKMVQ: 2.11.

For the variant FVEDSFDPNINPTIGASFMTKGVQ, the protein stability index turned out to be 2.25. To FVEDSFDPNINPTIGASFMTKWVQ belongs 1.23; to FVEDSFDPNINPTIGASFMTKSVQ, 2.26; to FVEDSFDPNINPTIGASFMTKIVQ, 1.6.
